Measured values: US20040038369

Molecular target: T1, HBEGF (delta TM)-ALP, Q99075
T1 chain: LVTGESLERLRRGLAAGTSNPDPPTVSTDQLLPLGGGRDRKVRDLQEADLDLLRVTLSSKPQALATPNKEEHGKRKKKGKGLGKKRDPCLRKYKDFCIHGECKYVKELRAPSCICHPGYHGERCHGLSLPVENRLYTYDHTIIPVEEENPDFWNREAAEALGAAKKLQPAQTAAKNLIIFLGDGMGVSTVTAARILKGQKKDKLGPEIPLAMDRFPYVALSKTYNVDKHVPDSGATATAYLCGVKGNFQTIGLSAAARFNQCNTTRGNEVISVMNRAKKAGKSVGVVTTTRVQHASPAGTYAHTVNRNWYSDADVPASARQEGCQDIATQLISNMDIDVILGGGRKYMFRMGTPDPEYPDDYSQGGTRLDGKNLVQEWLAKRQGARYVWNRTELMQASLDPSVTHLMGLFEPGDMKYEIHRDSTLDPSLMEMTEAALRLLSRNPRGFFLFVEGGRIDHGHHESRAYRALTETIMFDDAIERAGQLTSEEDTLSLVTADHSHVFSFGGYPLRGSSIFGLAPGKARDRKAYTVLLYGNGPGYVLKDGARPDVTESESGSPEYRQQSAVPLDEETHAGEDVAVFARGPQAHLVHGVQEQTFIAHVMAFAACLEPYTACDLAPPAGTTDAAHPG

B1: recombinant AST (human airway-specific trypsin-like enzyme expressed in insect cells with a baculovirus vector, purified as in Example 1) (peptide)
chain 1: DQAAANWLINECGAGPDLITLSEQR
chain 2: not shown
- cleavage seen by western blotting of the lysate incubated with recombinant HAST (1.56 U/mL) at 37° C. overnight: A mature type having the EGF domain of the HB-EGF was cut out. The band was shifted to a position of about 12 kD.
